This is an account of results in publication PMC10570711, “Tetramerization of upstream stimulating factor USF2 requires the elongated bent leucine zipper of the bHLH-LZ domain” (The Journal of Biological Chemistry, 2023).

For one series, the target named is T1, MBP-USF2 R248A (Homo sapiens, UniProt Q15853 235-346, R248A).
T1 sequence: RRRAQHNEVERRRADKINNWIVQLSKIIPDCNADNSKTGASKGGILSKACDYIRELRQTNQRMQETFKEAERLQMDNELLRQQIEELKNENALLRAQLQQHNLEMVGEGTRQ
Nature of the series: fluorescence anisotropy; FA: 20 nM FAM-DNA, 20 mM Tris pH 8.0, 50 mM KCl, 2 mM MgCl2, 0.5% glycerol, 4 C, 3 h; EMSA: 100 nM Cy3-DNA, 10 mM Tris pH 8.0, 50 mM KCl, 1 mM DTT, 2 mM MgCl2. Particulars: protein: recombinant; tags: 6xHis-MBP N-terminal; chain copies: 2; label: 5'-FAM on strand 1; blunt as printed if S3 is read 3'-5' (printed with 5'-3' labels). A general note: Fluorescence polarisation rises when a labelled molecule tumbles more slowly, as on binding a larger partner.

The next series addresses T2, MBP-USF2 E244A (Homo sapiens, UniProt Q15853 235-346, E244A).
T2 sequence: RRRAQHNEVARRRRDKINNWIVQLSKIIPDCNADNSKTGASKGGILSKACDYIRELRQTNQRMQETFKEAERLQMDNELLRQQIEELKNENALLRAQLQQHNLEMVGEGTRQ
The series is described as above. Particulars: protein: recombinant; tags: 6xHis-MBP N-terminal; chain copies: 2; label: 5'-FAM on strand 1; blunt as printed if S3 is read 3'-5' (printed with 5'-3' labels).

The target of a further series is T3, MBP-USF2 R247A (Homo sapiens, UniProt Q15853 235-346, R247A).
T3 sequence: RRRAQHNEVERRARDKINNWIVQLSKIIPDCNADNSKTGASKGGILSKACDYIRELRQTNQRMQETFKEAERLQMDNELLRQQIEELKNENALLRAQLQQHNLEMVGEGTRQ
The description is as above. Particulars: protein: recombinant; tags: 6xHis-MBP N-terminal; chain copies: 2; label: 5'-FAM on strand 1; blunt as printed if S3 is read 3'-5' (printed with 5'-3' labels).

For a further series, the target named is T4, MBP-USF2 E244K (Homo sapiens, UniProt Q15853 235-346, E244K).
T4 sequence: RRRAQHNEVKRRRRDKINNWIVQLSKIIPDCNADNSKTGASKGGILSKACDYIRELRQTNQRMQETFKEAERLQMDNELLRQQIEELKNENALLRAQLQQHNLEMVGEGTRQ
Described as above. The following applies: protein: recombinant; tags: 6xHis-MBP N-terminal; chain copies: 2; label: 5'-FAM on strand 1; blunt as printed if S3 is read 3'-5' (printed with 5'-3' labels).

The target in the next series is MBP-USF2 H240A (Homo sapiens, UniProt Q15853 235-346, H240A). The series is described as above. The following applies: protein: recombinant; tags: 6xHis-MBP N-terminal; chain copies: 2; label: 5'-FAM on strand 1; blunt as printed if S3 is read 3'-5' (printed with 5'-3' labels).
Chain of MBP-USF2 H240A (Q15853 235-346 H240A): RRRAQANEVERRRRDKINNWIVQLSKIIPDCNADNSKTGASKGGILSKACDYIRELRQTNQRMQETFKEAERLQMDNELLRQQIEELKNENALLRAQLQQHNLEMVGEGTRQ
The next series deals with MBP-USF2_ΔLZ-Ext (Homo sapiens, UniProt Q15853 235-292). Described as above. The following applies: protein: recombinant; tags: 6xHis-MBP N-terminal; chain copies: 2; label: 5'-FAM on strand 1; blunt as printed if S3 is read 3'-5' (printed with 5'-3' labels).
In the next series the target is USF2_Q334K (Homo sapiens, UniProt Q15853 235-346, Q334K). Nature of the series: fluorescence anisotropy; similar to USF2_WT; FA: 20 nM FAM-DNA, 20 mM Tris pH 8.0, 50 mM KCl, 2 mM MgCl2, 0.5% glycerol, 4 C, 3 h; EMSA: 100 nM Cy3-DNA, 10 mM Tris pH 8.0, 50 mM KCl, 1 mM DTT, 2 mM MgCl2. The following applies: protein: recombinant; chain copies: 2; label: 5'-FAM on strand 1; blunt as printed if S3 is read 3'-5' (printed with 5'-3' labels).
Chain of USF2_Q334K (Q15853 235-346 Q334K): as the sequence (Q15853 235-346 H240A) above, with A6H, Q100K counted along it

Series [1] deals with the molecule itself. Nature of the series: dynamic light scattering; USF2_bHLH-LZ-ext-DNA complexes, 400 μM sample; 100 mM KCl, 10 mM Hepes pH 7.5.
Series [2] concerns the molecule itself. Nature of the series: SEC-MALS; 700 μM protein mixed with 350 μM E-box DNA, overnight at 4 °C; Superdex 75 Increase; 20 mM Hepes pH 7.5, 100 mM KCl, 10 mM DTT; 0.5 ml/min; the constant is of tetramer to dimers.
Series [3] deals with the molecule itself. Nature of the series: crystal structure; USF2 235-346 cocrystallised with 18 bp double-stranded E-box DNA; sitting drop, 18 °C, 0.1 M Tris pH 7.0, 20% PEG4000; 3.5 Å; four protein chains in the asymmetric unit.
The next series deals with T5, MBP-USF2_WT (human, UniProt Q15853 235-346).
T5 construct: Upstream stimulating factor 2 (USF2), human, isoform 1, residues 235-346 (bHLH-LZ-Ext domain); Built in a pHis-MBP-TEV vector; a TEV site lies between the tag and USF2; also called 6×HisMBP-USF2_WT; source: E. coli Rosetta (DE3), purified (Ni-HiTrap, Superdex 75); not shown: His6, N-terminal, kept; MBP, N-terminal, kept
Nature of the series: fluorescence polarisation; fluorescence anisotropy; 10 nM 5IAF-labelled USF2_WT, MBP-USF2 proteins titrated 0-6 μM; 20 mM Tris 8.0, 50 mM KCl, 2 mM MgCl2, 0.5% glycerol; 4 °C overnight; apparent; dimer to monomers. The following applies: both partners purified.

B1: FAM E-box DNA (dsDNA)
DNA 1: GACGGGCACGTGACGCGC
DNA 2: GCGCGTCACGTGCCCGTC
Regarding B1, the Kd in the series with MBP-USF2 R248A is 460 ± 79 nM; in the series with MBP-USF2 E244A it was 72 ± 23 nM; with MBP-USF2 R247A, 250 ± 67 nM; in the series with MBP-USF2 E244K it was 290 ± 98 nM; in the series with MBP-USF2 H240A, 210 ± 43 nM. Besides, the binding signal in the series with MBP-USF2_ΔLZ-Ext is more than 20 fold decrease vs USF2_WT. Besides, in the series with USF2_Q334K, the binding result is “binds”.

B2: USF2_bHLH-LZ-Ext (human USF2 isoform 1, residues 235-346) (domain or fragment, UniProt Q15853 235-346, looked up)
chain: RRRAQHNEVERRRRDKINNWIVQLSKIIPDCNADNSKTGASKGGILSKACDYIRELRQTNQRMQETFKEAERLQMDNELLRQQIEELKNENALLRAQLQQHNLEMVGEGTRQ
notes: Upstream stimulating factor 2 (USF2), human, isoform 1, residues 235-346 (basic region to the C terminus; bHLH-LZ-Ext); In the crystal, SEC-MALS and DLS experiments the protein was in complex with 18 bp E-box DNA; His-MBP tag removed with TEV protease; also called USF2_WT; bHLH-LZ-Ext domain of USF2; source: E. coli Rosetta (DE3), purified (Ni-HiTrap, Superdex 75; TEV cleavage, HiTrap SP, S75); …
What is called stoichiometry N is the number of molecules, sites or subunits per partner or assembly. B2: the “stoichiometry N” value in series [1] turned out to be 4; in series [3], 2. For the same molecule, in series [2], the Kd is approximately 800 µM.

B3: USF2_E312R_E320R (bHLH-LZ-Ext domain, residues 235-346, double mutant) (domain or fragment, human, UniProt Q15853 235-346, looked up)
chain: RRRAQHNEVERRRRDKINNWIVQLSKIIPDCNADNSKTGASKGGILSKACDYIRELRQTNQRMQETFKEAERLQMDNRLLRQQIERLKNENALLRAQLQQHNLEMVGEGTRQ
notes: Upstream stimulating factor 2 (USF2), human, isoform 1, residues 235-346 (bHLH-LZ-Ext domain) with E312R and E320R; Generated on the construct MBP-USF2_WT; also called E312R/E320R double mutation; tetramer interface mutant; source: E. coli Rosetta (DE3), purified (Ni-HiTrap, Superdex 75)
For the molecule B3, the “stoichiometry N” value in series [2] came out at 2.

B4: 5IAF-labelled USF2_WT (5IAFUSF2_WT; labelled CGG-USF2_WT) (domain or fragment, human)
chain: CGGRRRAQHNEVERRRRDKINNWIVQLSKIIPDCNADNSKTGASKGGILSKACDYIRELRQTNQRMQETFKEAERLQMDNELLRQQIEELKNENALLRAQLQQHNLEMVGEGTRQ
modifications: 5-iodoacetamido-fluorescein (5-IAF) on the sulfhydryl cysteine end of CGG-USF2_WT
notes: CGG added before USF2 for labelling with 5-IAF (construct MBP-CGG-USF2_WT); Upstream stimulating factor 2 (USF2), human, isoform 1, residues 235-346 (bHLH-LZ-Ext domain); Made from MBP-CGG-USF2_WT by TEV cleavage of the His-MBP tag; also called 5IAF labeled USF2_WT; source: E. coli Rosetta (DE3), purified (Ni-HiTrap, TEV cleavage, HiTrap SP, S75), labelled with 5-IAF; not shown: His6, N-terminal, …
For B4, the Kd with MBP-USF2_WT is 100 ± 19 nM.
